How the values were obtained:
[1] = system: fusion protein of the 14mer peptide (control) including S15 in the p53 protein and GST [GST: P08515]
[2] = molecular target: MBP fusion protein of the hUpf1/SMG-2 partial fragment at the N-terminal side (UniProt Q92900)
HA tagged hUpf1/SMG-2 = HA tagged hUpf1/SMG-2 (UniProt Q92900)
[3] = system: GST fusion protein including S1078 (14mer peptide of hUpf1/SMG-2) [GST: P08515]
[4] = system: hUpf1/SMG-2 fusion protein (S1096) [GST: P08515]
[5] = molecular target: MBP fusion protein of the hUpf1/SMG-2 partial fragment at the C-terminal side (UniProt Q92900)

How did the “phosphorylation of substrate (in vitro kinase assay, 32P autoradiography)” value (from here on “phosphorylation of substrate”) [1] turn out when “6H-hSMG-1 (fusion protein of human SMG-1 partial fragment 107-3657 and His tag)” was run?
The value was “the control construct encoding the SQ motif in the p53 protein was phosphorylated by hSMG-1”.

And the “phosphorylation of substrate” value [2]?
Its value is “the fragments of hUpf1/SMG-2 at the C-terminal side and at the N-terminal side performed the role of good substrates for hSMG-1”.

And the “phosphorylation of substrate” value (HA tagged hUpf1/SMG-2)?
The value was “purified 6H-hSMG-1 phosphorylated HA-hUpf1/SMG-2”.

What about the “phosphorylation of substrate” value [3] of the same substance?
The value was “the GST fusion protein including S1078 or the GST fusion protein including S1096 ... was efficiently phosphorylated by 6H-hSMG-1”.

What about the “phosphorylation of substrate” value [4] of the same substance?
Its value is “the GST fusion protein including S1078 or the GST fusion protein including S1096 ... was efficiently phosphorylated by 6H-hSMG-1”.

And the “phosphorylation of substrate” value [5]?
Its value is “the fragments of hUpf1/SMG-2 at the C-terminal side and at the N-terminal side performed the role of good substrates for hSMG-1”.

— US20040137592
